Experiments:
[1] = system: NC(=O)c1ccc[n+]([C@@H]2O[C@H](COP(=O)([O-])OP(=O)(O)OC[C@H]3O[C@@H](n4cnc5c(N)ncnc54)[C@H](O)[C@@H]3O)[C@@H](O)[C@H]2O)c1; assay: purified protein; conditions: varied: cofactor
[2] = system: C[C@H](O)C(=O)O; assay: purified protein; format: biochemical, Babesia microti; conditions: NAD+

Substance: Babesia microti lactate dehydrogenase (BmLDH) (Babesia microti strain RI)
- Km [1]: 8.76 ± 0.57 mM
- Km [2]: 99.96 ± 22.33 mM

— article PMC4125376
